According to article PMC4677358:
Each block holds one substance with its values, some of them ahead of it.

Experiments:
[1] = target: RuvA (bound to Holliday junction DNA) (E. coli) (UniProt P0A809); assay: single-molecule fluorescence imaging in zero mode waveguides (counting of Cy5 photobleaching steps); 400 nM RuvA with 40 nM biotinylated Cy3-Holliday junction DNA held by streptavidin in the nanoholes, unbound washed out; 400 nM Cy5-RuvB added; 20 mM HEPES-KOH pH 8.0, 10 mM MgCl2; 25 ± 2 °C; holes with a single DNA; step counts fitted for the 42% labeling ratio; 1 mM ATPγS
[2] = target: RuvA (bound to Holliday junction DNA) (E. coli) (UniProt P0A809); assay: single-molecule fluorescence imaging in zero mode waveguides (counting of Cy5 photobleaching steps); 400 nM RuvA with 40 nM biotinylated Cy3-Holliday junction DNA held by streptavidin in the nanoholes, unbound washed out; 400 nM Cy5-RuvB added; 20 mM HEPES-KOH pH 8.0, 10 mM MgCl2; 25 ± 2 °C; holes with a single DNA; step counts fitted for the 42% labeling ratio; no nucleotide
[3] = target: RuvA (bound to Holliday junction DNA) (E. coli) (UniProt P0A809); assay: single-molecule fluorescence imaging in zero mode waveguides (counting of Cy5 photobleaching steps); 400 nM RuvA with 40 nM biotinylated Cy3-Holliday junction DNA held by streptavidin in the nanoholes, unbound washed out; 400 nM Cy5-RuvB added; 20 mM HEPES-KOH pH 8.0, 10 mM MgCl2; 25 ± 2 °C; holes with a single DNA; step counts fitted for the 42% labeling ratio; 0.5 mM ADP and 0.5 mM ATPγS
[4] = target: RuvA (bound to Holliday junction DNA) (E. coli) (UniProt P0A809); assay: single-molecule fluorescence imaging in zero mode waveguides (counting of Cy5 photobleaching steps); 400 nM RuvA with 40 nM biotinylated Cy3-Holliday junction DNA held by streptavidin in the nanoholes, unbound washed out; 400 nM Cy5-RuvB added; 20 mM HEPES-KOH pH 8.0, 10 mM MgCl2; 25 ± 2 °C; holes with a single DNA; step counts fitted for the 42% labeling ratio; 1 mM ADP
[5] = target: RuvA (bound to Holliday junction DNA) (E. coli) (UniProt P0A809)

Sequence of UniProt P0A809 (P0A809 whole entry): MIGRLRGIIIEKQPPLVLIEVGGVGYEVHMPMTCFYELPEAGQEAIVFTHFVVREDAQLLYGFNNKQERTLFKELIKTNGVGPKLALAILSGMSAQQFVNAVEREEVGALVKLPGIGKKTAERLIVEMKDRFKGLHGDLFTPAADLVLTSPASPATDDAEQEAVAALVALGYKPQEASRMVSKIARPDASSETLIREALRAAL
Sequence of RuvB (P0A812 whole entry): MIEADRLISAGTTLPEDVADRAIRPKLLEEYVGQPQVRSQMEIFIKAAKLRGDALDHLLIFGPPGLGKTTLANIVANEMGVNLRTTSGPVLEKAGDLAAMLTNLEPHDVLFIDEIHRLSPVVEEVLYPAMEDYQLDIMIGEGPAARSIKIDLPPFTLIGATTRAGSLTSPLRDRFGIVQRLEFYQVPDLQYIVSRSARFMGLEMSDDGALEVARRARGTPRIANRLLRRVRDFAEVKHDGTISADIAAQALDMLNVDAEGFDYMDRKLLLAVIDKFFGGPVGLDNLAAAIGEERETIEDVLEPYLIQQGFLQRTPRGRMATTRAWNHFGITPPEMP

% of Holliday junction DNA (with RuvA) that interacted with RuvB (fit, monomer model) [1]: 92%
% of RuvA-Holliday junction DNA complexes with 0 RuvB dimers bound (fit, dimer model, Cy5 at random) [1]: 11%
% of RuvA-Holliday junction DNA complexes with 0 RuvB dimers bound (fit, dimer model, one Cy5 per labelled dimer) [1]: 23%
% of RuvA-Holliday junction DNA complexes with 0 RuvBs bound (fit, monomer model) [1]: 8%
% of RuvA-Holliday junction DNA complexes with 1 RuvB dimers bound (fit, dimer model, Cy5 at random) [1]: 36%
% of RuvA-Holliday junction DNA complexes with 1 RuvB dimers bound (fit, dimer model, one Cy5 per labelled dimer) [1]: 32%
% of RuvA-Holliday junction DNA complexes with 1 RuvBs bound (fit, monomer model) [1]: 12%
% of RuvA-Holliday junction DNA complexes with 2 RuvB dimers bound (fit, dimer model, Cy5 at random) [1]: 53%
% of RuvA-Holliday junction DNA complexes with 2 RuvB dimers bound (fit, dimer model, one Cy5 per labelled dimer) [1]: 27%
% of RuvA-Holliday junction DNA complexes with 2 RuvBs bound (fit, monomer model) [1]: 18%
% of RuvA-Holliday junction DNA complexes with 3 RuvB dimers bound (fit, dimer model, Cy5 at random) [1]: 0%
% of RuvA-Holliday junction DNA complexes with 3 RuvB dimers bound (fit, dimer model, one Cy5 per labelled dimer) [1]: 14%
% of RuvA-Holliday junction DNA complexes with 3 RuvBs bound (fit, monomer model) [1]: 19%
% of RuvA-Holliday junction DNA complexes with 4 RuvB dimers bound (fit, dimer model, Cy5 at random) [1]: 0%
% of RuvA-Holliday junction DNA complexes with 4 RuvB dimers bound (fit, dimer model, one Cy5 per labelled dimer) [1]: 4%
% of RuvA-Holliday junction DNA complexes with 4 RuvBs bound (fit, monomer model) [1]: 31%
% of RuvA-Holliday junction DNA complexes with 5 RuvB dimers bound (fit, dimer model, Cy5 at random) [1]: 0%
% of RuvA-Holliday junction DNA complexes with 5 RuvB dimers bound (fit, dimer model, one Cy5 per labelled dimer) [1]: 0%
% of RuvA-Holliday junction DNA complexes with 5 RuvBs bound (fit, monomer model) [1]: 12%
% of RuvA-Holliday junction DNA complexes with 6 RuvB dimers bound (fit, dimer model, Cy5 at random) [1]: 0%
% of RuvA-Holliday junction DNA complexes with 6 RuvB dimers bound (fit, dimer model, one Cy5 per labelled dimer) [1]: 0%
% of RuvA-Holliday junction DNA complexes with 6 RuvBs bound (fit, monomer model) [1]: 0%
% of Holliday junction DNA (with RuvA) that interacted with RuvB (fit, monomer model) [2]: 77%
% of RuvA-Holliday junction DNA complexes with 0 RuvB dimers bound (fit, dimer model, Cy5 at random) [2]: 35%
% of RuvA-Holliday junction DNA complexes with 0 RuvB dimers bound (fit, dimer model, one Cy5 per labelled dimer) [2]: 52%
% of RuvA-Holliday junction DNA complexes with 0 RuvBs bound (fit, monomer model) [2]: 23%
% of RuvA-Holliday junction DNA complexes with 1 RuvB dimers bound (fit, dimer model, Cy5 at random) [2]: 65%
% of RuvA-Holliday junction DNA complexes with 1 RuvB dimers bound (fit, dimer model, one Cy5 per labelled dimer) [2]: 38%
% of RuvA-Holliday junction DNA complexes with 1 RuvBs bound (fit, monomer model) [2]: 37%
% of RuvA-Holliday junction DNA complexes with 2 RuvB dimers bound (fit, dimer model, Cy5 at random) [2]: 0%
% of RuvA-Holliday junction DNA complexes with 2 RuvB dimers bound (fit, dimer model, one Cy5 per labelled dimer) [2]: 10%
% of RuvA-Holliday junction DNA complexes with 2 RuvBs bound (fit, monomer model) [2]: 40%
% of RuvA-Holliday junction DNA complexes with 3 RuvB dimers bound (fit, dimer model, Cy5 at random) [2]: 0%
% of RuvA-Holliday junction DNA complexes with 3 RuvB dimers bound (fit, dimer model, one Cy5 per labelled dimer) [2]: 0%
% of RuvA-Holliday junction DNA complexes with 3 RuvBs bound (fit, monomer model) [2]: 0%
% of RuvA-Holliday junction DNA complexes with 4 RuvB dimers bound (fit, dimer model, Cy5 at random) [2]: 0%
% of RuvA-Holliday junction DNA complexes with 4 RuvB dimers bound (fit, dimer model, one Cy5 per labelled dimer) [2]: 0%
% of RuvA-Holliday junction DNA complexes with 4 RuvBs bound (fit, monomer model) [2]: 0%
% of RuvA-Holliday junction DNA complexes with 5 RuvB dimers bound (fit, dimer model, Cy5 at random) [2]: 0%
% of RuvA-Holliday junction DNA complexes with 5 RuvB dimers bound (fit, dimer model, one Cy5 per labelled dimer) [2]: 0%
% of RuvA-Holliday junction DNA complexes with 5 RuvBs bound (fit, monomer model) [2]: 0%
% of RuvA-Holliday junction DNA complexes with 6 RuvB dimers bound (fit, dimer model, Cy5 at random) [2]: 0%
% of RuvA-Holliday junction DNA complexes with 6 RuvB dimers bound (fit, dimer model, one Cy5 per labelled dimer) [2]: 0%
% of RuvA-Holliday junction DNA complexes with 6 RuvBs bound (fit, monomer model) [2]: 0%
% of Holliday junction DNA (with RuvA) that interacted with RuvB (fit, dimer model of Table 2) [3]: 97%
% of Holliday junction DNA (with RuvA) that interacted with RuvB (fit, monomer model) [3]: 98%
% of RuvA-Holliday junction DNA complexes with 0 RuvB dimers bound (fit, dimer model, Cy5 at random) [3]: 3%
% of RuvA-Holliday junction DNA complexes with 0 RuvB dimers bound (fit, dimer model, one Cy5 per labelled dimer) [3]: 14%
% of RuvA-Holliday junction DNA complexes with 0 RuvBs bound (fit, monomer model) [3]: 2%
% of RuvA-Holliday junction DNA complexes with 1 RuvB dimers bound (fit, dimer model, Cy5 at random) [3]: 24%
% of RuvA-Holliday junction DNA complexes with 1 RuvB dimers bound (fit, dimer model, one Cy5 per labelled dimer) [3]: 29%
% of RuvA-Holliday junction DNA complexes with 1 RuvBs bound (fit, monomer model) [3]: 5%
% of RuvA-Holliday junction DNA complexes with 2 RuvB dimers bound (fit, dimer model, Cy5 at random) [3]: 70%
% of RuvA-Holliday junction DNA complexes with 2 RuvB dimers bound (fit, dimer model, one Cy5 per labelled dimer) [3]: 33%
% of RuvA-Holliday junction DNA complexes with 2 RuvBs bound (fit, monomer model) [3]: 8%
% of RuvA-Holliday junction DNA complexes with 3 RuvB dimers bound (fit, dimer model, Cy5 at random) [3]: 3%
% of RuvA-Holliday junction DNA complexes with 3 RuvB dimers bound (fit, dimer model, one Cy5 per labelled dimer) [3]: 19%
% of RuvA-Holliday junction DNA complexes with 3 RuvBs bound (fit, monomer model) [3]: 31%
% of RuvA-Holliday junction DNA complexes with 4 RuvB dimers bound (fit, dimer model, Cy5 at random) [3]: 0%
% of RuvA-Holliday junction DNA complexes with 4 RuvB dimers bound (fit, dimer model, one Cy5 per labelled dimer) [3]: 4%
% of RuvA-Holliday junction DNA complexes with 4 RuvBs bound (fit, monomer model) [3]: 37%
% of RuvA-Holliday junction DNA complexes with 5 RuvB dimers bound (fit, dimer model, Cy5 at random) [3]: 0%
% of RuvA-Holliday junction DNA complexes with 5 RuvB dimers bound (fit, dimer model, one Cy5 per labelled dimer) [3]: 1%
% of RuvA-Holliday junction DNA complexes with 5 RuvBs bound (fit, monomer model) [3]: 14%
% of RuvA-Holliday junction DNA complexes with 6 RuvB dimers bound (fit, dimer model, Cy5 at random) [3]: 0%
% of RuvA-Holliday junction DNA complexes with 6 RuvB dimers bound (fit, dimer model, one Cy5 per labelled dimer) [3]: 0%
% of RuvA-Holliday junction DNA complexes with 6 RuvBs bound (fit, monomer model) [3]: 3%
% of Holliday junction DNA (with RuvA) that interacted with RuvB (fit, monomer model) [4]: 90%
% of RuvA-Holliday junction DNA complexes with 0 RuvB dimers bound (fit, dimer model, Cy5 at random) [4]: 11%
% of RuvA-Holliday junction DNA complexes with 0 RuvB dimers bound (fit, dimer model, one Cy5 per labelled dimer) [4]: 26%
% of RuvA-Holliday junction DNA complexes with 0 RuvBs bound (fit, monomer model) [4]: 10%
% of RuvA-Holliday junction DNA complexes with 1 RuvB dimers bound (fit, dimer model, Cy5 at random) [4]: 48%
% of RuvA-Holliday junction DNA complexes with 1 RuvB dimers bound (fit, dimer model, one Cy5 per labelled dimer) [4]: 35%
% of RuvA-Holliday junction DNA complexes with 1 RuvBs bound (fit, monomer model) [4]: 10%
% of RuvA-Holliday junction DNA complexes with 2 RuvB dimers bound (fit, dimer model, Cy5 at random) [4]: 41%
% of RuvA-Holliday junction DNA complexes with 2 RuvB dimers bound (fit, dimer model, one Cy5 per labelled dimer) [4]: 26%
% of RuvA-Holliday junction DNA complexes with 2 RuvBs bound (fit, monomer model) [4]: 21%
% of RuvA-Holliday junction DNA complexes with 3 RuvB dimers bound (fit, dimer model, Cy5 at random) [4]: 0%
% of RuvA-Holliday junction DNA complexes with 3 RuvB dimers bound (fit, dimer model, one Cy5 per labelled dimer) [4]: 13%
% of RuvA-Holliday junction DNA complexes with 3 RuvBs bound (fit, monomer model) [4]: 30%
% of RuvA-Holliday junction DNA complexes with 4 RuvB dimers bound (fit, dimer model, Cy5 at random) [4]: 0%
% of RuvA-Holliday junction DNA complexes with 4 RuvB dimers bound (fit, dimer model, one Cy5 per labelled dimer) [4]: 0%
% of RuvA-Holliday junction DNA complexes with 4 RuvBs bound (fit, monomer model) [4]: 29%
% of RuvA-Holliday junction DNA complexes with 5 RuvB dimers bound (fit, dimer model, Cy5 at random) [4]: 0%
% of RuvA-Holliday junction DNA complexes with 5 RuvB dimers bound (fit, dimer model, one Cy5 per labelled dimer) [4]: 0%
% of RuvA-Holliday junction DNA complexes with 5 RuvBs bound (fit, monomer model) [4]: 0%
% of RuvA-Holliday junction DNA complexes with 6 RuvB dimers bound (fit, dimer model, Cy5 at random) [4]: 0%
% of RuvA-Holliday junction DNA complexes with 6 RuvB dimers bound (fit, dimer model, one Cy5 per labelled dimer) [4]: 0%
% of RuvA-Holliday junction DNA complexes with 6 RuvBs bound (fit, monomer model) [4]: 0%
Substance: Cy5-labeled RuvB-S39C (from UniProt P0A812 1-336) (enzyme)

ratio of fluorescent spots of Cy3-Holliday junction DNA to nanoholes after addition of 400 nM RuvB with 1 mM ATP and 5 min at 25 °C (about 90% before the addition); loss of spots by branch migration [5]: 16%
Substance: RuvB (from UniProt P0A812 1-336) (enzyme)
